Biological target: the molecule itself
Assay: crystal structure; crystals from 18% (w/v) PEG 3350, 10 mM magnesium chloride, 50 mM Tris-HCl pH 8.5; space group I2, two protomers per a.u. related by a dyad; data at 100 K, 2.10 Å

B1: ImmR transcriptional regulator DNA-binding domain (Bacillus subtilis ICEBs1) (domain or fragment, Bacillus subtilis strain 168, UniProt P96631 1-64, looked up)
chain: MSLGKRLKEARQKAGYTQKEAAEKLNIGNNNLSNYERDYRDPDTDTLLKLSNLYNVSTDYLLGK
notes: ImmR, HTH-type transcriptional regulator of ICEBs1, Bacillus subtilis strain 168, 127 residues; the final model comprises M1-K64 of molecules A and B, each with an N-terminal alanine (A0) left from the purification tag; Full-length ImmR (1-127) was set up for crystallisation; The authors suppose that a trypsin-like contaminant cut it after K64, because there is no density beyond K64 and the …
- binding result: binds

Source: paper PMC8960796, “Crystal structure report of the ImmR transcriptional regulator DNA-binding domain of the Bacillus subtilis ICEBs1 transposon” (Scientific Reports, 2022)
